This passage reports Kd results from patent US5352772A, “75 Kilodalton interleukin-2 receptor proteins and their uses” (The Trustees of Dartmouth College, priority 1986, dated 1994).

The nature of the test: IL-2 binding affinity of the separate receptor chains. Set-up: species or system human. The conditions noted are these: read-out: Kd of the chain for IL-2; each chain expressed separately. As to the method:
Monoclonal antibodies reactive with the Tac epitope were made available by Dr. Ellis Reinherz (1HT4; IgG2a Dana-Farber Cancer Center, Boston Mass.). IL-2 and anti-Tac ware radioiodinated using lactoperoxidase-glucose oxidase (Enzymobeads, Biorad, Richmond, Calif.) according to the manufacturer's instructions. The specific activity of anti-Tac was 5.3×10^4 CPM/pmole. […] Binding of both ligands to whole cells was performed, as described in Robb et al., Vol 154 J. Exp. Med., p. […] After 20-min incubation at 37° C., the tubes were centrifuged (8,500×g, 80s), the tips of the tubes containing the cell pellet were severed and the cell-bound and free radioactivity were determined by solid scintillation counting. The calculated values for the number of binding sites per cell were derived by Scatchard analysis of equilibrium binding data after subtraction of nonspecific binding determined in the presence of 150-fold molar excess of unlabeled ligand. […]
Particularly convincing in this regard is the finding that the chain present in limiting amounts dictates the number of high affinity receptors, and either α or β chains can function in this role. […] In contrast, YT cells express […] in excess, and high affinity receptors are detected only when the cells are induced to express β chains.

B1: β chain: previously isolated 55,000 dalton IL-2 receptor protein bearing the Tac epitope (protein, UniProt P01589 22-272, looked up)
Interleukin-2 receptor …: ELCDDDPPEIPHATFKAMAYKEGTMLNCECKRGFRRIKSGSLYMLCTGNSSHSSWDNQCQCTSSATRNTTKQVTPQPEEQKERKTTEMQSPMQPVDQASLPGHCREPPPWENEATERIYHFVVGQMVYYQCVQGYRALHRGPAESVCKMTHGKTRWTQPQLICTGEMETSQFPGEEKPQASPEGRPESETSCLVTTTDFQIQTEMAATMETSIFTTEYQVAVAGCVFLLISVLLLSGLTWQRRQRKSRRTI
One may read the Kd as a measure of binding affinity in units of concentration. B1: the equilibrium dissociation constant (Kd) turned out to be 10 nM.
